# Experimental data taken from the DeepSol protein solubility set.
# Assay: soluble on expression in E. coli; label from the status in PepcDB or PDB records
row,Sequence,soluble on expression in E. coli
1,MPLNKLIQDGDNQDLTDERFKATFDTDALAAVFHGGEDALKRIRELRDEVTKRWHLFDALPGAHRTRAERMEDVSRKLKNLMESVGEFADFTNNLDMLVIIRDVMGIEGFPLALHNLMFVPTIQNQADDEQTEWWLMDALQGKIIGTYAQTELGHGTNLGAIETTATYDKLTEEFIIHTPTTTATKWWPGGLGTSCTHVVLVANLIIDTKNYGLHPFFVPIRDRNSYSVMSGVRVGDIGTKMGVNCVDNGFLAFDNYRIPRRNMLMKHSKVSKEGLYTAPSHPKVGYTTMLYMRSEMIYHQAYYLAMAMAISIRYSAVRRQGEIKPGTQEVQILDYQTQQYRIFPGLARCFAFNTAAATVRQMTENCIKQLSHGNSDVLADLHALSCGLKAVVTHQASQSIDQARQACGGHGYSDASYLPTLYTCSVGACTYEGENMVMLLQLSKYLMKAAAKAEKGEEMAPLVAYLVKPDITETNDKFAKMLSHFEHIARHRVMHAYRQMIEEEKQGIERDYAFANHSVDWTKAARAHTKLFIARGFVKSVQEVSDEAVHDVLTTLAELYLSYELIEMSADLTANGYLSESDVQQIRHQIYDSMRKTRRNAVSIVDSFDICDRELRSVLGRRDGHVYENLYKWAQMSPLNERNLPHVEKYLKPMTSKL,not soluble
2,MSLGDRFYDLISALHKSVRGSAPDAALYWYARILTAGGDPLYVARRLLAIASEDVGNADPRAMQVALAAWDCFSRVGAYEGERAIAQAIIYLSVAPKSNAVYTAFNTAKQQAKDLPDYDVPPHLRNAPTNLMKELGYGTEYRYAHDEPNAYAAGENYFPPELKDTQYYFPTNRGMEIQIKEKLERLREQDKSTEGHHHHHH,soluble
3,GHHHHHHAIAENLYFQSNSHDGSNFSNKFSAHKDVVEDLLRKDTVGLVTFQDFRARREYLERCAVAEAACQNASRRAEELETKKKRVKRANLSRLSFGDSLEDQEENSVEFAKITRFASSKKANGVGFNTSGQDIVKEPDVFSPKEEGFFGKQNRKIGMDPGVDTSFLPDRDREQEERLERERLKQQWLSEQERVKNEEIDIIYSIWDGRGQRKLLSCKKGTTIAKFLSIVQQKVSTLKHCKVEDLMFIKEDMIIPHHLSFYDLISMKARGKNGSLFCFDVHEDIRIRNDASVEKDDSHAAKVVERRWYERNKHIYPASMWEVFDVSKNYGRVQKDFFGN,not soluble
4,LIGDKNTTFVEKLNSLAADHQLPQIGFSTSSEPEWQFVKDLTEVDPEHVVKSYNRQAKYHLNKNKQFCIKLRKIGRDELPAFKRITQQTADRLHYHDKSLDFYETLFDTYGKKAKFIFAEINFKEYSESIEKDLNDIQKKLTEIAGADYHNISDLSDFSASAKRHLSEGIKTETALQKRLQEAKKMHQEAKHDIVLVSVALFVIENQEVVYLYSGSDEKYEHLFAPYEIQDTMITEAVKERIPLYNFYGVSGKFDGSDGVLGFKTHFNGYTREMVGSFDFPVQKTKYYFYRLFKKILHRQ,not soluble
5,MAHHHHHHMRAESSGSESQSRQSERTCGVSPGGPGGPGASPSIVVAVRKRPRIPGREDDENDVVRCGENGGPSVTVYEPRTKLDLTPIIEPSSFSYDHVFGEACTNEEVYRGCCQPLLQNVREGGGAVIFAFGQTGSGKTHTMLGTGERPGLYSLAVTELLTMTEHSTMTASFYEAYGAKLYDLLNDRAEVKMLQDEYQNVHIVGITEQIVSSVDDVNALMMRGQQLRAIGTTHANDRSSRSHAVLEIKLKLADSSSESQLGRITFVDLAGSERASDTAETDAKTRREGAEINKSLLALKECIRAMSMRKRHIPFRGSKLTQILRESFVGRCKTCVIAAISPCQGHCEDTLNTLRYADRIKELKGPANPHNGVKPIPCKTCGQPIFIGDRHVCKRQLVVCPHCRQDVDKQELDTHMSECKESPMRCQYCNERMLRSESVGHSRRCARAPIRCGACGATVPRQLIDRHAQQECAEAKVKCRYCGCVQSRQLLAAHEQNCDAAKVACPHCLQFMRKRRLDGHVATCVRNLSRAMHTPRSTALNIIASTSMETSQTLASSSSSIGAQQSIPKSATAQTAASSRASSSHNRNVAAEPAGGQVDLVAADEGTGPLNFTRAHSSRRSSAQLASGVSLANQSQSNRAPGAGGRWNAGALGADEVSAACDSDCGSVVCPYSRYGCPVKVTRLNVAAHLKESMQQHLELVTTYADRVDEQNMQLRRLVIHETDTLSSRVTMERLDK,not soluble
6,MGSDKIHHHHHHMSFSNEDRDVFIIKTDRMIDRGALMSRYSRASDPDIRSVFHREFEGNQKRSEDFYRRIFLEYGDESIAELVTAQVGIQNVSNVISKVIEEIRIGLSYLEKSTRYVAYDRKVDGHYLFMQAEKIGLSGEAAREYTDLCNRLFDLYSSTLPRIEEEISRQWPIESFDFNIDGNPRNYKELDENGRKLAQKSYRSSVRSRALDDARFILPASTLTNMGVSGNGRSFIHLIQKLMEYGVPESERLAHDLYEELKGEFPQIIDDALSQHGQDIINYKRSLASLFPYTDGGRFEKVRLIKYSNEREEMQKVLALLMYPFAEDASGIISRIKAMELSEASAILERIRDLRKNRRMKVGRPFEAVNYVFEVTTNYGAFRDLQRHRFLSIVRKPLTVSYGFDVPPIIAKMPDLSEEYAEAMKDAERVYRIIKERYGAWIAQYAVPFAYRYPVVFTTNLAEATYFIELRSTPQAHFDLRDIAIRMYNEIKSVHPSLAGIIKFVDTGDYPLGRLSAEVRKNVKAGGI,not soluble
7,MGSDKIHHHHHHMNTPLYKALIQHARRNSHSFHVPGHHNGDVFFDDAKSIFDPLLTIDVTELAGLDDLHHPSGVIKEAQELASQLYGSAESFFLVNGTTVGNLAMILSVCEPGDTILVQRNCHKSVFHAVDLSGAEPVYLAPDVDSAMHVPTHVPLGTIKEALEAYPDAKGLVLTNPTYYGHSADLTEIITEAHHYGIPVLVDEAHGAHFILGEPFPVSALKMGADIVVQSAHKTLPAMTMGSYLHLNSSCRINRDRVAEYLNRLQSSSPSYPIMASLDIARAYVQHIIEEQKLSDILQRIETLKQTFDSLTNAEAVNPANPLIITDPLKLTIRSKRGHSGYTLQSILERANIFTELADENQVLLVLPLGGKRRINAEIIRSIDEEIEKTPPDQTFVSAEWGVQPVTVLPYPKKVLHSFKKEYVSFEEAAGRLNAEDIIPYPPGIPMIMAGERITKESVQKLSRLISMKTHVQGNMKIKEKQLLVYIEEEKS,not soluble
8,MSENSIRLTQYSHGAGCGCKISPKVLETILHSEQAKFVDPNLLVGNETRDDAAVYDLGNGTSVISTTDFFMPIVDNPFDFGRIAATNAISDIFAMGGKPIMAIAILGWPINKLSPEIAREVTEGGRYACRQAGIALAGGHSIDAPEPIFGLAVTGIVPTERVKKNSTAQAGCKLFLTKPLGIGVLTTAEKKSLLKPEHQGLATEVMCRMNIAGASFANIEGVKAMTDVTGFGLLGHLSEMCQGAGVQARVDYDAIPKLPGVEEYIKLGAVPGGTERNFASYGHLMGEMPREVRDLLCDPQTSGGLLLAVMPEAENEVKATAAEFGIELTAIGELVPARGGRAMVEIR,not soluble
9,MKFLHTADLHLGKIVSGVSMLAEQEYILAQITKIAEEEQVDALILAGDLYDRAVPPADAVKVLNDILVKWNVELGIPIFAISGNHDSAERLAFGSQWYESSKLYMKGKCTSQFEAISFMDAEVWLVPYHEPAIIREAFADNSIRSFEDAMQAVTKQIRSKWDTSKAQILVGHAFVSGGIPSDSERQLAIGNVDRVSTDCFDGFTYTALGHLHHPHAIRHPSIFYSGSPLKYSFSEANDHKSVRIVELEGKELVSVTERFLTPKHDMRIISGTLAELTENLVENPDDFFQVNLMDEGALIDPMGKLRQFYPNILHLERKKQTLKETQDNFEEIMKKDDLELFGQFFEHVNGTELTETQKQKLADVFEQARKEDAE,not soluble
10,MGSDKIHHHHHHMRKMRVLAIGNVFNPSGVSVHIINVLKELVKMGDEVFLYVPSFLVRRNYEVLKDLENAHISVHHSVYETKEAEEVGTLPYFIRSHTVYLRWNNLGEDRKYIDELKDIKPDVIYDMHEDSITLRLSYHIAKRLNKPLVKLLHDEPFRNSFGRGYRKFLGIKGLAYDTLMWMFYKFDKRAFLRSINDGILRGIAGVSKAPFYLSGIEEIAHSVRLKVYEVGNAFNKDIIYKYRRTRGKEDYAVFFARLVPQKGIKELPKIADLLDSKIVVFGKIFNENDRSILMSHPKIEYKGYRPIEEVYNTVAKAKVLIYPSHQDGFSLVVLDTLALGTSVVAYDIPAIRFVFSSLKPVRTVREYDIKEMASTANSILRMKDEEYESEHEDEKVKKFLELHSSWANVAKETHDFLSAFL,not soluble
11,GPGSMTSLNTELALAKRFHMLSKNYSNRPVIARRNTLPTLVRFIRSNDRETRHYSLSALLLLAQHEENVELLCLERGLVPGVYAVYKDADYDDPQLREIADQILNCLEPVLQGRDPRKASQTSVTPVGSSSDAVDSDPLNDSFSPSRRARAGRVLRGVGSDAIHTVLLDIPALDPNGGDNIEAIEDIFQTTRGVLSYSIFVENRQARLFVTCATQVVQQVLSDSGFESVVVRDDVVNQEMFGGGADGSAGLNSGGNRSNTSYYDGGSPQHRPSYLQSVANSIYQSALVLGGGSRNNDTLSARVNEQRTREQEGESTFGYISKTLSKWW,not soluble
12,TAALVINANPFTLGHQYLVEKAAAENELLHLFMVSDDSSLIPFSVRKQLILAGTEHLSNICYHETGPYIISKSIFPSYFQKDQASVIESQARIDLAIFIQIAKYLGIKGRYVGEEPTSLVTGIYNQIMLQELPKQAIDCIVVPRKTYKDGPISASTVRKALKEGNEQILRELLPSTSLNYFLSPEAQPLIKKIQKADNVIHY,not soluble
13,KARGNVGFVAGSSYGTGSVWTRNNEVVVLTASHVVGRANMATLKIGDAMLTLTFKKNGDFAEAVTTQSELPGNWPQLHFAQPTTGPASWCTATGDEEGLLSGEVCLAWTTSGDSGSAVVQGDAVVGVHTGSNTSGVAYVTTPSGKLLGADTVTLSSLSKHFTGPLTSIPKDIPDNIIADVDAVPRSLAMLIDGLSNRE,soluble
14,KLTKSDLDILNSMKNVVDGIARMYGEHTEVVLHSLDAEAPEIIKIANGHVTERSEGAPITNLARMKLREGKDVSDSYLTKTSNGKTLHSITTIVRNPKNKPIGLLCINVDMDAPMQAFLKAMLPQQHTECCVGGAR,not soluble
15,MDYRVLLYYKYTTIDDPELFATEHLAFCKDLELKGRILVSTEGINGTVSGTVEATDKYMEALKNDARFQGITFKVDEAEGHAFKKMHVRPRQEIVALDLEDDVNPRELTGNYLSPKEFREALLSDDTVVIDARNDYEYDLGHFRGAVRPDITRFRDLPDWIKENKEQFMDKKIVTYCTGGIRCEKFSGYLLKEGFEDVSQLEGGIATYGKDPETKGEFWDGKMYVFDERISVEVNHVDKTVVGKEWFDGTPCERYINCSNPECNKQILVSEENEARYLGACSHECAKHENNRYVKKHNISDEEKAKRLENFKELVKLEHHHHHH,not soluble
16,MDHLKHLQQLQNIERIVLSGIVLANHKIEEVHSVLEPSDFYYPPNGLFFEIALKLHEEDCPIDENFIRQKMPKDKQIKEEDLVAIFAASPIDNIEAYVEEIKNASIKRKLFGLANTIREQALESAQKSSDILGAVEREVYALLNGSTIEGFRNIKEVLESAMDLITENQRKGSLEVTGIPTGFVQLDNYTSGFNKGSLVIIGARPSMGKTSLMMNMVLSALNDDRGVAVFSLEMSAEQLALRALSDLTSINMHDLESGRLDDDQWENLAKCFDHLSQKKLFFYDKSYVRIEQIRLQLRKLKSQHKELGIAFIDYLQLMSGSKATKERHEQIAEISRELKTLARELEIPIIALVQLNRSLENRDDKRPILSDIKDSGGIEQDADIVLFLYRGYIYQMRAEDNKIDKLKKEGKIEEAQELYLKVNEERRIHKQNGSIEEAEIIVAKNRNGATGTVYTRFNAPFTRYEDMPIDSHLEEGQETKVDYDIVTT,not soluble
17,NEVESGYYFTTLDHYIYEAEEANLGPGVVVVERQYIQDRIPSWTGPGFVRVPEGAYLEFFIDNIPYSMEYEILIRYEPQLPDHWEKAVITVQRPGKIPASSRCGNTVPDDDNQVVSLSPGSRYVVLPRPVCFEKGMNYTVRLELPQYTASGSDVESPYTFIDSLVLMPYCKSLDIFTVGGSGDGEVTNSAWETFQRYRCLENSRSVVKTPMTDVCRNIIFSISALIHQTGL,soluble
